Reference: publication PMC3596305, “Escherichia coli NemA Is an Efficient Chromate Reductase That Can Be Biologically Immobilized to Provide a Cell Free System for Remediation of Hexavalent Chromium” (PLoS ONE, 2013)

System: [O]=[Cr](=[O])([OH])[OH]
Test: purified protein
Conditions: 1 mM NADH, 50 mM Tris-Cl pH 7.0, 22°C

“NfsB_St (Salmonella enterica subsp. enterica serovar Typhi)” was tested, and the Km was 320 ± 120 µM, the kcat was 0.54 s⁻¹ and the kcat/Km was 1700 M⁻¹ s⁻¹.

Substance “NfsA_St (Salmonella enterica subsp. enterica serovar Typhi)” has a Km of 180 µM, a kcat of 0.02 s⁻¹ and a kcat/Km of 140 M⁻¹ s⁻¹.

“ChrR_St (Salmonella enterica subsp. enterica serovar Typhi)” was tested, and the Km was 37 ± 2 µM, the kcat was 0.031 s⁻¹ and the kcat/Km was 830 M⁻¹ s⁻¹.
